The target of one assay is T1, SaPriA (Staphylococcus aureus, UniProt Q2G266).
T1 construct: gene priA; recombinant
T1 sequence (Q2G266 1-802): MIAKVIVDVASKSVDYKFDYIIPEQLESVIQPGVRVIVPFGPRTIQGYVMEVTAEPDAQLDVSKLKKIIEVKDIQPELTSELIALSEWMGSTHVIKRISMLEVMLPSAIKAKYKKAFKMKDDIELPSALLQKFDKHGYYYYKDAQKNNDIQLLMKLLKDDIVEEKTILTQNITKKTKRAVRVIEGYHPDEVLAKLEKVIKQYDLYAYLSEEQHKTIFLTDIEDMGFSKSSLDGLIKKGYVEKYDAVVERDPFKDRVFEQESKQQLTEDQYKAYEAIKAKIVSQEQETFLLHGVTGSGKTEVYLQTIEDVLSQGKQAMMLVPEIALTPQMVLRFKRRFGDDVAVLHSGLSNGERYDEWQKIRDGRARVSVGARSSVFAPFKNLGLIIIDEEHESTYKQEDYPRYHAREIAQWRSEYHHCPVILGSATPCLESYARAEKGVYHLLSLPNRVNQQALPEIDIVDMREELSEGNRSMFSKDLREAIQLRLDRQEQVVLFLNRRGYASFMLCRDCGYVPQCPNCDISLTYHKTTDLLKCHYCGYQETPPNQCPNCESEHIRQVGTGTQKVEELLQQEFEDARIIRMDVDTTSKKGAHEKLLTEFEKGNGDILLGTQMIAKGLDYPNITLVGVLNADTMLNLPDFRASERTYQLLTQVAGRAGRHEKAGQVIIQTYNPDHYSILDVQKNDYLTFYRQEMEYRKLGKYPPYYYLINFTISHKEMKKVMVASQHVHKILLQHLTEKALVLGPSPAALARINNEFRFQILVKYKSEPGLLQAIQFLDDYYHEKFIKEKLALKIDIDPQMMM
Briefly: ATPase assay, thin-layer chromatography with autoradiography. Format: biochemical. The settings on record: 0.4 mM [γ-32P]ATP, 0.12 μM SaPriA, 0.1 μM PS4/PS3-dT30 DNA, 40 mM Tris pH 8.0, 10 mM NaCl, 2 mM DTT, 2.5 mM MgCl2, 1 h; labelled compound.

Assay [1] has as its target SaSsbC with a His tag (product of S. aureus ssb gene SAAV2152) (S. aureus subsp. aureus ED98). Briefly: cross-linking; glutaraldehyde (0.1% to 5%), SaSsbC 2.5 uM, 4 C, 30 min, Coomassie-stained SDS-PAGE; self-association, tetramer.
Assay [2] shares this target. Kind of assay: SEC; gel filtration, Superdex 200 prep grade, SaSsbC 2 mg/mL in Buffer B (20 mM HEPES, 100 mM NaCl, pH 7.0), column calibrated with proteins of known mass; self-association, tetramer. On the technique in general: In gel filtration, larger molecules generally elute earlier.

Consider `Nc1ncnc2c1ncn2[C@@H]1O[C@H](COP(=O)(O)OP(=O)(O)OP(=O)(O)O)[C@@H](O)[C@H]1O` [ATP], for which the “ATPase assay, thin-layer chromatography with autoradiography” value on SaPriA is “SaPriA could hydrolyze ATP on its own”.
For “SaSsbC with a His tag (product of S. aureus ssb gene SAAV2152) (natural protein)”, the stoichiometry N in assay [1] and in assay [2] was 4 throughout.
